Experimental data: patent US20180230233A1 (Genentech, published 2018)
Residue numbers refer to the chain shown, from its start. In names and notes the source's numbering stands.

B1: hu31A.v11 W100Y (antibody, name in Kabat numbering, V domains shown)
VH: EVQLVESGGGLVQPGGSLRLSCAASGFTFSDYGMVWVRQAPGKGLEWVAFISSGSSTVYYADTMKGRFTISRDNSKNTLYLQMNSLRAEDTAVYYCTRRNYDDYYFDVWGQGTLVTVSS
VL: DIQMTQSPSSLSASVGDRVTITCSASSSVTYMYWYQQKPGKSPKPWIYRTSDLASGVPSRFSGSGSGTDFTLTISSLQPEDFATYYCQHYHSYPLTFGQGTKVEIK
notes: Position 100 is Kabat numbering; also called W100Y variant
B2: hu31A.v11 W100F (antibody, name in Kabat numbering, V domains shown)
VH: B1 VH with Y104F
VL: B1 VL
notes: also called W100F variant
B3: hu31A.v11 W100R (antibody, name in Kabat numbering, V domains shown)
VH: B1 VH with Y104R
VL: B1 VL
notes: also called W100R variant
B4: hu31A.v11 W100V (antibody, name in Kabat numbering, V domains shown)
VH: B1 VH with Y104V
VL: B1 VL
notes: Position 100 is Kabat numbering; also called W100V variant
B5: hu31A.v11 W100L (antibody, name in Kabat numbering, V domains shown)
VH: B1 VH with Y104L
VL: B1 VL
notes: also called W100L variant
B6: huE104.v10 IgG1 (chimeric light chain) (antibody, V domains shown)
VH: EVQLVESGPGLVKPSETLSLTCTVSRFSLIGYAITWIRQPPGKGLEWIGGISSAATTFYSSWAKSRVTISRDTSKNQVSLKLSSVTAADTAVYYCARDPRGYGAALDRLDLWGQGTLVTVSS
VL: AAVLTQTPASVSAAVGGTVSISCQSIKSVYNNRLGWYQQKPGQPPKLLIYETSILTSGVPSRFKGSGSETQFTLTISDVQADDAATYFCAGGFDRSGDTTFGGGTEVVVK
B7: hu31A.v14 IgG1 (antibody, V domains shown)
VH: B1 VH with Y94V, N100D, Y101N, D102Y, Y104W
VL: B1 VL
B8: hu31A.v5 IgG1 (antibody, V domains shown)
VH: B1 VH with Y94V, T97A, N100D, Y101N, D102Y, Y104W
VL: B1 VL
notes: also called v5 (of hu31A)
B9: hu31A.v15 IgG1 (antibody, V domains shown)
VH: B1 VH with Y94V, N100D, Y101N, D102Y, Y104W
VL: B1 VL with M4L, F70Y
B10: hu31A.v10 IgG1 (antibody, V domains shown)
VH: B1 VH with Y104W
VL: B1 VL with S42A, P45L, W46L
notes: also called v10 (of hu31A)
B11: hu31A.v2 IgG1 (antibody, V domains shown)
VH: B1 VH with A49G, Y94V, T97A, N100D, Y101N, D102Y, Y104W
VL: B1 VL
notes: also called v2 (of hu31A)
B12: hu31A.v3 IgG1 (antibody, V domains shown)
VH: B1 VH with A49G, Y94V, T97A, N100D, Y101N, D102Y, Y104W
VL: B1 VL with M4L, F70Y
notes: also called v3 (of hu31A)
B13: hu31A.v7 IgG1 (antibody, V domains shown)
VH: B1 VH with D31S, Y32F, V35H, Y94V, T97A, N100D, Y101N, D102Y, Y104W
VL: B1 VL with S42A, P45L, W46L
notes: also called v7 (of hu31A)
B14: hu31A.v13 IgG1 (antibody, V domains shown)
VH: B1 VH with Y94V, N100D, Y101N, D102Y, Y104W
VL: B1 VL with S42A, P45L, W46L
B15: hu31A.v6 IgG1 (antibody, V domains shown)
VH: B1 VH with Y94V, T97A, N100D, Y101N, D102Y, Y104W
VL: B1 VL with M4L, F70Y
notes: also called v6 (of hu31A)
B16: hu31A.v12 IgG1 (antibody, V domains shown)
VH: B1 VH with Y104W
VL: B1 VL with M4L, F70Y
notes: also called v12 (of hu31A)
B17: hu31A.v4 IgG1 (antibody, V domains shown)
VH: B1 VH with Y94V, T97A, N100D, Y101N, D102Y, Y104W
VL: B1 VL with S42A, P45L, W46L
notes: also called v4 (of hu31A)
B18: hu31A.v1 IgG1 (antibody, V domains shown)
VH: B1 VH with A49G, Y94V, T97A, N100D, Y101N, D102Y, Y104W
VL: B1 VL with S42A, P45L, W46L
notes: also called v1 (of hu31A)
B19: hu31A.v9 IgG1 (antibody, V domains shown)
VH: B1 VH with D31S, Y32F, V35H, Y94V, T97A, N100D, Y101N, D102Y, Y104W
VL: B1 VL with M4L, F70Y
notes: also called v9 (of hu31A)
B20: hu31A.v8 IgG1 (antibody, V domains shown)
VH: B1 VH with D31S, Y32F, V35H, Y94V, T97A, N100D, Y101N, D102Y, Y104W
VL: B1 VL
notes: also called v8 (of hu31A)
B21: huE104.v9 IgG1 (chimeric heavy chain) (antibody, V domains shown)
VH: QSLEESGGGLFKPTDTLTLTCTVSRFSLIGYAITWVRQSPENGLEWIGGISSAATTFYSSWAKSRSTITRNTNENTVTLKMTSLTAADTATYFCARDPRGYGAALDRLDLWGQGTLVTVSS
VL: DIQMTQSPSSLSASVGDRVTITCQSIKSVYNNRLGWYQQKPGKAPKLLIYETSILTSGVPSRFSGSGSGTDFTLTISSLQPEDFATYYCAGGFDRSGDTTFGQGTKVEIK
notes: also called E104.v9 chimeric clone
B22: huE104.v4 IgG1 (antibody, V domains shown)
VH: EVQLVESGGGLVQPGGSLRLSCAVSRFSLIGYAITWVRQAPGKGLEWIGGISSAATTFYSSWAKSRSTISRDTSKNTVYLQMNSLRAEDTAVYFCARDPRGYGAALDRLDLWGQGTLVTVSS
VL: B21 VL
B23: huE104.v5 IgG1 (antibody, V domains shown)
VH: B6 VH with R71V, V78F
VL: B21 VL with I2A, M4L, A44P, G69E, Y88F
B24: huE104.v8 IgG1 (antibody, V domains shown)
VH: B22 VH
VL: B21 VL with I2A, M4L, A44P, G69E, Y88F
B25: huE104.v11 IgG1 (antibody, V domains shown)
VH: B6 VH with R71V
VL: B21 VL
notes: also called v11 (of huE104)
B26: huE104.v6 IgG1 (antibody, V domains shown)
VH: B6 VH
VL: B21 VL with I2A, M4L, A44P, G69E, Y88F
B27: huE104.v3 IgG1 (antibody, V domains shown)
VH: B6 VH with I37V, V67S, Y94F
VL: B21 VL
B28: huE104.v12 IgG1 (antibody, V domains shown)
VH: B6 VH with V78F
VL: B21 VL
notes: also called v12 (of huE104)
B29: huE104.v7 IgG1 (antibody, V domains shown)
VH: B6 VH with I37V, V67S, Y94F
VL: B21 VL with I2A, M4L, A44P, G69E, Y88F
B30: rabbit anti-tryptase monoclonal antibody E104 (antibody, V domains shown)
VH: B21 VH
VL: B6 VL with A81C
notes: Rabbit hybridoma antibody with rabbit kappa light chain; also called rab.E104; clone E104

biological target: T1, recombinant human tryptase beta 1 tetramer (wild type, active) (human, UniProt Q15661 31-275); assay: cell-based or functional assay
T1 sequence (Q15661 31-275): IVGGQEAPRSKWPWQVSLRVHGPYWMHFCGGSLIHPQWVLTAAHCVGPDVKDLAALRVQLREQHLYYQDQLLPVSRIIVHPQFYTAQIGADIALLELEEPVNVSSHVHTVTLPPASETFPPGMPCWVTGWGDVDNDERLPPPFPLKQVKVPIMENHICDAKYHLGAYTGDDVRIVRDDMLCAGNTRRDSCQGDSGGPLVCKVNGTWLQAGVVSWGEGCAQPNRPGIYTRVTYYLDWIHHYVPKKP

Row | Binder | IC50 as fold increase compared to hu31A.v11 wild type [fold]
1 | B1 | 3.46
2 | B2 | 2.5

biological target: T2, recombinant His-tagged human tryptase beta 1 monomer (human, UniProt Q15661 31-275); assay: SPR, tryptase beta 1 monomer
T2 construct: also called His6-tagged tryptase monomer; human tryptase b1 monomer
T2 sequence (Q15661 other isoform, or with tags, fused parts or gaps): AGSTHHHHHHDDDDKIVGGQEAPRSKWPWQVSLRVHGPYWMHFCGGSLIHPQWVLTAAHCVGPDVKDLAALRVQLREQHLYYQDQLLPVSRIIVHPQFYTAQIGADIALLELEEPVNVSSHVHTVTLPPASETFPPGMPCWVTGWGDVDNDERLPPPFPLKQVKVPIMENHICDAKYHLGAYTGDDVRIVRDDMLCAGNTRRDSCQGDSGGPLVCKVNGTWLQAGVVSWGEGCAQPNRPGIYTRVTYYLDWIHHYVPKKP

Row | Binder | fold faster off-rate (Koff) compared to wild-type hu31A.v11 [fold]
3 | B2 | ~100

biological target: T2, recombinant His-tagged human tryptase …; assay: SPR, tryptase beta 1 monomer; remark: another data set of the same source
Method: (§1) The assay can use a BIAcore® T200 or an equivalent device. Briefly, BIAcore® Series S CM5 sensor chips (or equivalent sensor chips) are immobilized with monoclonal mouse anti-human IgG (Fc) antibody and anti-tryptase antibodies are subsequently captured on the flow cell. Serial 3-fold dilutions of the human tryptase beta 1 monomer are injected at a flow rate of 30 μl/min. Each sample is analyzed with 3 min association and 10 min dissociation. The assay is performed at 25° C. After each injection, the chip is regenerated using 3 M MgCl₂. Binding response is corrected by subtracting the response units (RU) from a flow cell capturing an irrelevant IgG at similar density. A 1:1 Languir model of simultaneous fitting of kₒₙ and koff is used for kinetics analysis.
(§2) In this experiment, all the humanized variants were expressed as IgG by transient transfection of 293 cells. IgG was purified with protein G affinity chromatography. The affinity of each variant for recombinant His-tagged human tryptase beta 1 monomer (SEQ ID NO: 128) was determined by SPR analysis using a BIAcore® T200. BIAcore® Series S CM5 sensor chips were immobilized with monoclonal mouse anti-human IgG (Fc) antibody (Human antibody capture kit from GE Healthcare) and anti-tryptase variants were subsequently captured on each flow cell. Serial 3-fold dilutions of the human tryptase beta 1 monomer were injected at a flow rate of 30 μl/min. Each sample was analyzed with 3 min association and 10 min dissociation. After each injection, the chip was regenerated using 3 M MgCl₂. Binding response was corrected by subtracting the response units (RU) from a flow cell capturing an irrelevant IgG at similar density. A 1:1 Languir model of simultaneous fitting of kₒₙ and koff was used for kinetics analysis.

Row | Binder | KD as fold increase compared to hu31A.v11 wild type [fold]
4 | B1 | 234
5 | B3 | 54
6 | B2 | 80
7 | B4 | 821
8 | B5 | 2410

biological target: T2, recombinant His-tagged human tryptase …; assay: SPR (BIAcore T200); IgG1 captured by anti-human Fc, His-tagged monomer injected
Method: as §1, §2

Row | Binder | Kd [pM]
9 | B6 | 260
10 | B7 | 1340
11 | B8 | 1680
12 | B9 | 1320
13 | B10 | 1190
14 | B11 | 740
15 | B12 | 790
16 | B13 | 2060
17 | B14 | 9650
18 | B15 | 1650
19 | B16 | 430
20 | B17 | 11800
21 | B18 | 4040
22 | B19 | 940
23 | B20 | 940
24 | B21 | 240
25 | B22 | 440
26 | B23 | 180
27 | B24 | 240
28 | B25 | 320
29 | B26 | 140
30 | B27 | 210
31 | B28 | 120
32 | B29 | 250

biological target: T1, recombinant human tryptase beta 1 …; assay: ELISA on biotinylated human tryptase beta 1 captured on NeutrAvidin, with heparin to keep the tetramer

Row | Binder | binding result
33 | B30 | binds
